In data set [1] the target is middle domain of human Paip1 (Paip1M, residues 78-296) (human) (UniProt Q9H074). Put plainly: BLI; […]; association 30 s, dissociation 80 s; 25 C; global fit, 1:1 model. (BLI is a label-free optical method that tracks binding on a fibre tip over time.)
Data set [2] has as its target middle domain of human poly(A)-binding protein-interacting protein 1 (Paip1M, residues 78-296) (human) (UniProt Q9H074). The data set can be described thus: BLI; […]; 1×PBS pH 7.4, 0.1% surfactant P20, 0.1% BSA, 500 mM NaCl; 25 °C; global fit, 1:1 model.
Data set [3] has as its target T1, SARS-CoV-2 SUD-core (SARS-CoV-2, UniProt P0DTD1 1231-1494). Put plainly: BLI; Fig. 2C titration. The note with it: protein: recombinant; tags: N-terminal 6xHis; G4.
In data set [4] the target is T1, SARS-CoV-2 SUD-core. The data set can be described thus: BLI. The note with it: protein: recombinant; tags: N-terminal 6xHis; G4.
A further data set addresses SARS-CoV SUD-core (SARS-CoV, UniProt P0C6X7 1207-1470). Put plainly: BLI. Conditions: protein: recombinant; tags: N-terminal 6xHis; G4.
The target of data set [5] is T1, SARS-CoV-2 SUD-core. The data set can be described thus: EMSA; no compound. The note with it: protein: recombinant; tags: N-terminal 6xHis; label: none stated; SYBR-Gold stain; G4 (predicted).

For orientation: koff means the rate constant with which the complex falls apart. As usually defined, the Kd is the constant that tells how readily two partners part at equilibrium.

middle domain of human Paip1 (Paip1M, residues 78-296) (human), sequence (Q9H074 157-375): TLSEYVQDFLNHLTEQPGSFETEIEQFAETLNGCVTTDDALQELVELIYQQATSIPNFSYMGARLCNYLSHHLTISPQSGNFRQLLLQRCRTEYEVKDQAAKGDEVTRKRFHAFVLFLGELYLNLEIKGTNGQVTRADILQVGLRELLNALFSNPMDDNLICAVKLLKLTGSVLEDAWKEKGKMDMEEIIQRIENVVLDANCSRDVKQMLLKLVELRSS
middle domain of human poly(A)-binding protein-interacting protein 1 (Paip1M, residues 78-296) (human), sequence (Q9H074 157-375): as above

“SARS-CoV SUD-core (nsp3 389-652) (domain or fragment)”: the koff in data set [1] was found to be 0.0066 s⁻¹. The same molecule had an equilibrium dissociation constant (Kd) in data set [2] of 4.4 µM. Molecule “SARS-CoV-2 SUD-core (nsp3 residues 413-676) (domain or fragment)” gave a koff in data set [1] of 0.0055 s⁻¹. As for CGGGAGGGCGGGGAGGGC (structured_RNA) [G4-TRF2 (BLI)], the Kd with SARS-CoV-2 SUD-core [3] is 0.17 µM; with SARS-CoV-2 SUD-core [4] it was 0.0358 µM; with SARS-CoV SUD-core, 0.017 µM. Regarding GGCUUAUAGGUUUAAUGGUAUUGG (structured_RNA) [G4-24268 (EMSA)], in the data set with SARS-CoV-2 SUD-core [5], the binding result is given as “binds”.
